Laboratory results: paper PMC8060896 (The Journal of Biological Chemistry, 2002)

B1: S1 co-produced with N-CEACAMFc in 293 cells (domain or fragment)
chain: GYIGDFRCIQTVNYNGNNASAPSISTEAVDVSKGRGTYYVLDRVYLNATLLLTGYYPVDGSNYRNLALTGTNTLSLTWFKPPFLSEFNDGIFAKVQNLKTNTPTGATSYFPTIVIGSLFGNTSYTVVLEPYNNIIMASVCTYTICQLPYTPCKPNTNGNRVIGFWHTDVKPPICLLKRNFTFNVNAPWLYFHFYQQGGTFYAYYADKPSATTFLFSVYIGDILTQYFVLPFICTPTAGSTLAPLYWVTPLLKRQYLFNFNEKGVITSAVDCASSYISEIKCKTQSLLPSTGVYDLSGYTVQPVGVVYRRVPNLPDCKIEEWLTAKSVPSPLNWERRTFQNCNFNLSSLLRYVQAESLSCNNIDASKVYGMCFGSVSVDKFAIPRSRQIDLQIGNSGFLQTANYKIDTAATSCQLYYSLPKNNVTINNYNPSSWNRRYGFKVNDRCQIFANILLNGINSGTTCSTDLQLPNTEVATGVCVRYDLYGITGQGVFKEVKADYYNSWQALLYDVNGNLNGFRDLTTNKTYTIRSCYSGRVSAAYHKEAPEPALLYRNINCSYVFTNNISREENPLNYFDSYLGCVVNADNRTDEALPNCNLRMGAGLCVDYSKSRRARRSVSTGYRLTTFEPYMPMLVNDSVQSVGGLYEMQIPTNFTIGHHEEFIQIRAPKVTIDCAAFVCGDNAACRQQLVEYGSFCDNVNAILNEVNNLLDNMQLQVASALMQGVTISSRLPDGISGPIDDINFSPLLGCIGSTCAE
B2: S1 (769-residue S1 fragment of the MHV strain JHM spike protein, produced independently from cDNA) (domain or fragment)
chain: GYIGDFRCIQTVNYNGNNASAPSISTEAVDVSKGLGTYYVLDRVYLNATLLLTGYYPVDGSNYRNLALTGTNTLSLTWFKPPFLSEFNDGIFAKVQNLKTNTPTGATSYFPTIVIGSLFGNTSYTVVLEPYNNIIMASVCTYTICQLPYTPCKPNTNGNRVIGFWHTDVKPPICLLKRNFTFNVNAPWLYFHFYQQGGTFYAYYADKPSATTFLFSVYIGDILTQYFVLPFICTPTAGSTLLPLYWVTPLLKRQYLFNFNEKGVITSAVDCASSYISEIKCKTQSLLPSTGVYDLSGYTVQPVGVVYRRVPNLPDCKIEEWLTAKSVPSPLNWERRTFQNCNFNLSSLLRYVQAESLSCNNIDASKVYGMCFGSVSVDKFAIPRSRQIDLQIGNSGFLQTANYKIDTAATSCQLYYSLPKNNVTINNYNPSSWNRRYGFNDAGVFGKSKHDVAYAQQCFTVRPSYCPCAQPDIVSACTSQTKPMSAYCPTGTIHRECSLWNGPHLRSARVGSGTYTCECTCKPNPFDTYDLRCGQIKTIVNVGDHCEGLGVLEDKCGNSDPHKGCSCANDSFIGWSHDTCLVNDRCQIFANILLNGINSGTTCSTDLQLPNTEVATGVCVRYDLYGITGQGVFKEVKADYYNSWQALLYDVNGNLNGFRDLTTNKTYTIRSCYSGRVSAAYHKEAPEPALLYRNINCSYVFTNNISREENPLNYFDSYLGCVVNADNRTDEALPNCDLRMGAGLCVDYSKSRRARR

Key:
[1] = target: N-CEACAMFc (N-domain of murine CEACAM1^a linked to a carboxyl-terminal IgG1 Fc) (murine); assay: pull-down
[2] = target: N-CEACAMFc (N-domain of murine CEACAM1^a linked to a carboxyl-terminal IgG1 Fc) (murine); assay: pull-down; remark: listed apart in the source
Target sequence in this assay (P31809 35-428): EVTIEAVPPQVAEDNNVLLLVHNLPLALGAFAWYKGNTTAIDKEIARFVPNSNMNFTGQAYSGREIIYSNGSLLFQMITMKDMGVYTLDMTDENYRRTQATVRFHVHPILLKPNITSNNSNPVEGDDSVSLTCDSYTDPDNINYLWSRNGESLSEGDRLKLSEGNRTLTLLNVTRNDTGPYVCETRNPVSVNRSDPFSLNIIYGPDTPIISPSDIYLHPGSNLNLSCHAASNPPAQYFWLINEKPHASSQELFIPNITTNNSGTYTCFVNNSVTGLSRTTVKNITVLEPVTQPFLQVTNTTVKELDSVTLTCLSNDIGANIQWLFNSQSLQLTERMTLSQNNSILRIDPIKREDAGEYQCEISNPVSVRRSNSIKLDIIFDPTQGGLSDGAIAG

[3] = target: the molecule itself; assay: velocity sucrose gradient ultracentrifugation

Molecule	35S in the boxed band precipitated with N-CEACAMFc [1]	also measured
S_(T212S/Y214S/Y216S) (full-length S of JHM strain with the indicated substitutions) (from UniProt P11225 14-1235) (natural protein)	2140 cpm	–
Hetero-oligomer of S_(T212S/Y214S/Y216S) with wild-type S1_(330) (from UniProt P11225 14-1235; P11225 14-330) (complex)	4330 cpm	–
B1	–	^35S-labeled S1:^35S-labeled N-CEACAMFc ratio [2]: 3.4
B2	–	stoichiometry N [3]: 2
